Here are results for two molecules from PMC2842088 (Biochemistry, 2009).

For data set [1], the target named is T1, HpxO (Klebsiella pneumoniae, UniProt A6T923).
T1 sequence (A6T923 1-384): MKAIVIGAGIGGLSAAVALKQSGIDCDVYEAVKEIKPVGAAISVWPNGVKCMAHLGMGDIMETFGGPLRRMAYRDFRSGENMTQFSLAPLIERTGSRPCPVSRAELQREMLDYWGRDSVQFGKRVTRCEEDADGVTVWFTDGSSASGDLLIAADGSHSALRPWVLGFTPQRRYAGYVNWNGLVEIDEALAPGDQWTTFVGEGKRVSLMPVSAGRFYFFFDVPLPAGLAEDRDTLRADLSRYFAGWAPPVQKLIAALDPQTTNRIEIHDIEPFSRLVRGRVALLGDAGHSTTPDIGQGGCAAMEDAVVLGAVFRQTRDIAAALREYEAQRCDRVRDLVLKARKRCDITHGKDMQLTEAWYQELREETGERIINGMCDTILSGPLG
The data set is described as follows: steady-state rate against NADPH, no saturation. Format: biochemical. Conditions: read-out: Km,NADPH; urate as co-substrate; printed as lower limit.

Substrate in data set [2]: O=c1[nH]c(=O)c2[nH]c(=O)[nH]c2[nH]1
Briefly: purified protein. Format: biochemical, Klebsiella pneumoniae. The conditions noted are these: NADH as co-substrate, saturating (1.5 mM).

The Km is the substrate concentration at which the rate is half of its maximum. Consider `NC(=O)C1=CN([C@@H]2O[C@H](COP(=O)(O)OP(=O)(O)OC[C@H]3O[C@@H](n4cnc5c(N)ncnc54)[C@H](OP(=O)(O)O)[C@@H]3O)[C@@H](O)[C@H]2O)C=CC1` [NADPH], for which, in data set [1], the Km is more than 1000 µM.

B1: HpxO (Klebsiella pneumoniae subsp. pneumoniae MGH 78578) (protein)
chain: MKAIVIGAGIGGLSAAVALKQSGIDCDVYEAVKEIKPVGAAISVWPNGVKCMAHLGMGDIMETFGGPLRRMAYRDFRSGENMTQFSLAPLIERTGSRPCPVSRAELQREMLDYWGRDSVQFGKRVTRCEEDADGVTVWFTDGSSASGDLLIAADGSHSALRPWVLGFTPQRRYAGYVNWNGLVEIDEALAPGDQWTTFVGEGKRVSLMPVSAGRFYFFFDVPLPAGLAEDRDTLRADLSRYFAGWAPPVQKLIAALDPQTTNRIEIHDIEPFSRLVRGRVALLGDAGHSTTPDIGQGGCAAMEDAVVLGAVFRQTRDIAAALREYEAQRCDRVRDLVLKARKRCDITHGKDMQLTEAWYQELREETGERIINGMCDTILSGPLG
In general, kcat refers to the maximal rate divided by the concentration of active sites. For the molecule B1, in data set [2], the Km was found to be 42 ± 8 µM and the kcat is 42 ± 2 s⁻¹.
